Reference: a protein production outcome set (Wang et al. 2014)

Assay: label from the status in PepcDB records

Sequence: MEENLISMREDHSFHVRYRMEASCLELALEGERLCKSGDCRAGVSFFEAAVQVGTEDLKTLSAIYSQLGNAYFYLHDYAKALEYHHHDLTLARTIGDQLGEAKASGNLGNTLKVLGNFDEAIVCCQRHLDISRELNDKVGEARALYNLGNVYHAKGKSFGCPGPQDVGEFPEEVRDALQAAVDFYEENLSLVTALGDRAAQGRAFGNLGNTHYLLGNFRDAVIAHEQRLLIAKEFGDKAAERRAYSNLGNAYIFLGEFETASEYYKKTLLLARQLKDRAVEAQSCYSLGNTYTLLQDYEKAIDYHLKHLAIAQELNDRIGEGRACWSLGNAYTALGNHDQAMHFAEKHLEISREVGDKSGELTARLNLSDLQMVLGLSYSTNNSIMSENTEIDSSLNGVRPKLGRRHSMENMELMKLTPEKVQNWNSEILAKQKPLIAKPSAKLLFVNRLKGKKYKTNSSTKVLQDASNSIDHRIPNSQRKISADTIGDEGFFDLLSRFQSNRMDDQRCCLQEKNCHTASTTTSSTPPKMMLKTSSVPVVSPNTDEFLDLLASSQSRRLDDQRASFSNLPGLRLTQNSQSVLSHLMTNDNKEADEDFFDILVKCQGSRLDDQRCAPPPATTKGPTVPDEDFFSLILRSQGKRMDEQRVLLQRDQNRDTDFGLKDFLQNNALLEFKNSGKKSADH
- protein production: failed

Sequence: MDSYFLFFIILTSIFIVPQILKRFNVPTITATMLAGIIIGPFGLNLIQTSSTLDTFASFGVIFLMFLAGMEVDNETLKDEFKNSLVLSLFSMLIPAIGGYFIGQYFGLDFIGSLLYAVIFSSHSVGIVYALMDELGLIKSRFGTTVISASVVIDLISLIVISILIKMGGSGINSDIIPFIVLIVAYIIALLIIIPLISKLILNELQKFHVQKIHFILLIILISIIVGEHIGIHPIIGAFIIGIAVSEELTKEEHDKILNENLNAIGYGIFIPLFFLNLGMTTDISVIFNFDNLSLIFVSVVSLISLKIISGYFSLRILDYNKLKSFCGGLLTVPSLTASLVGATLGRDLGILPEKFFVAVVVIALLTSTVAPIYVKNLVSKNYDKLKLN
- protein production: failed

Sequence: TVDRSVAIVGTRAMSHYGKSATSMLAAGIADHHWTIVSGGALGVDTVAHTEALQRQKPTVAVCARGLDAPYPRKNAELLRSIVETGCLVSEYAPGLTPHRHRFLTRNRLVAALSQGTVVVEAAWRSGALNTLSWASALGRVAMAVPGPVTNTGSLGCHERIRNKEAELVCSAEEILALVGTLGEFDPN
- protein production: failed

Sequence: MSLESLFQHIIFTEHQAEESRRLMREVRSEITRCREKIKKATEELNEEKIKLESKVQQFFEKSFFLQLLKAHENALEKQYSEITNHRNMLLQTFEAIKKQMIEEEDKFIKEITDFNNDYEITKKRELLMKENVKIEISDLENQANMLKSEMKSMEHDSSQLNELQKQKSELIQELFTLQRKLKVFEDEENESICTTKYLEAEKIKISEKPQNDTECLRLKKELELYKEDDMESVYEALQTEIEFLELTLAQKDLQESK
- protein production: failed

Sequence: MIRTIQDLLNERVAIGKIVNTHGLKGEVKFFPYTNSEEIVKNLSSVVLYNSEKKAFYNLTVESVRRMNKLFLIRFKSIDTIEAAERIKGCEVFIKYEELPKLSEDEYYFYEILDCDVFYESGENVGKVVDIIETGSNDVLVVRKKKKETLIPMTKDCIVEIDKGAKKIIAKEMEWILEHHHHHH
- protein production: failed

Sequence: MSNNQQMMLNRIKVVLAEKQRTNRWLAEQMGKSENTISRWCSNKSQPSLDMLVKVAELLNVDPRQLINGKIKI
- protein production: not failed

Sequence: MDKLEPLRINMRHGSILAVHFFIPGKPTICHQTARTLIRHIPFQCLLRVTSQNLDVGEFVKIYHEEKAEVKSSSLAKKIPKTSNLLASTSDKLELARAITTFKEEEIRHLAEPDDVDFVLTLDVADVGVSKIVIDVGSLIDLLFLSTLGENGK
- protein production: failed

Sequence: MSNYPLHQACMENEFFKVQELLHSKPSLLLQKDQDGRIPLHWSVSFQAHEITSFLLSKMENVNLDDYPDDSGWTPFHIACSVGNLEVVKSLYDRPLKPDLNKITNQGVTCLHLAVGKKWFEVSQFLIENGASVRIKDKFNQIPLHRAASVGSLKLIELLCGLGKSAVNWQDKQGWTPLFHALAEGHGDAAVLLVEKYGAEYDLVDNKGAKAEDVALNEQVKKFFLNNV
- protein production: not failed

Sequence: MLCLTKKRHGLRIEIPPMPILPARPLKYLLASIIALTAGGPDIAVAQAPDSVISQPGTAPASSFRTDRLPGGDVKPSDGVGVFDRMGAKLPDLPPEKDYKGPIDEAYGAYQRGYYLTAMDKALPRAQLGDPAAQTLIGEILSQGLGVKKDVKGAAFWYGKAAEGGDPAAMFKYALMLMEGQGVPRDKVKADDYMRKAAEAGNPSAEFNWAQIVVADNPGEKGLKLALPFYEKSAEQGIADSQYAVAQIYATLKDLPEEKKRLAREWMARAARAGFDTAELDLGIWLVNGVGGPKDYVKGFEWLKLAANGGNVVAQNKLAHLYINAIGTPPNPVEAAKWYVLSRRAGLADPSLEDFYLGIEDDQQKAAIDAANKFRRR
- protein production: failed

Sequence: MLFNRHNKTTDSLQQTIAEQSRLLEAIDRSMAVIEFDLQGNVLRANANFLQTLGYREDQVTGQPHRLFCTPEYVRSSDYQQLWNRLRSGQFESGTFERVASNGQSLWLEASYNPIRDASGAVYKVVKYALDVTARVQEEVEARNKLDAIDRAMAVIEFNLDGSIIGANSNFLSRMGYSLAEIKGKHHRMFCKPELINSSAYQDFWNRLNRGEFFNGQFERIDRHGRTLWLEANYNPVYDASGRLCKVVKYAADVTQQVEKHEQDAQSASQAYHISVQTRKVAEQGTGVIQQAASEMRQIAENIEGSSSLIARLGERSEQITAIVNTIRAIADQTNLLALNAAIEAARAGDQGRGFAVVADEVRQLAARTSGSTAEISSMIDMIQNETQQAIKSMDGTRERAAKGVQLADQAGTVILQIRDGASEAVEAVSMFANERGAP
- protein production: failed

Sequence: MRFHLPGPEDTVRLGRALAKALLQIDGLRVVLLAGTLGSGKTTMTRGLVAELPGGGMAEVSSPSFNICNLYPTTPPTAHFDLYRLEGNEPDDALLDLIDEGESIILIEWAEHLPEYALPPVWLRLAWHAAGEGRIVEAHGNGAPALVALDMVAAGVPDLVQP
- protein production: failed

Sequence: MSLQPKLLLVLKGDSNAYWRQVYLGAQKAADEAGVTLLHRSTKDDGDIAGQIQILSYHLSQAPPDALILAPNSAEDLTPSVAQYRARNIPVLVVDSDLAGDAHQGLVATDNYAAGQLAARALLATLDLSKERNIALLRLRAGNASTDQREQGFLDVLRKHDKIRIIAAPYAGDDRGAARSEMLRLLKETPTIDGLFTPNESTTIGALVAIRQSGMSKQFGFIGFDQTEELEAAMYAGEISNLVVQNPEYMGYLAVQRALDLVRGKPIPAFTDTGVRLLQEGHHHHHH
- protein production: not failed

Sequence: MPEPHAVLYVTNELSHIVKNEFLPIWKLTGDESLNDLWLENGKYATDVYAYGDVSKWTIRQLRGHGFIFISTHKNVQLADIIKTVDVRVPREVARSHDMKAFENEIGRRRIRMRKGFGDALRNYAFKMAIEFHGSEAETLNDANPRLHKIYGMPEIPPLYMEYAEIGTRFDDEPTDEKLVSMLHYIVYSAEEVHYIGCGDLRTLMQFKKRSPGRFRRVLWHVYDPIAPECSDPNVIVHNIMVDSKKDILKHMNFLKRVERPFIWDVSSDRSQMNDHEWETTRFAEDRLGEEIAYEMGGAFSSALIKHRIPNSKDEYHCISTYLFPQPGADADMYELRNFMRLRGYSHVDRHMHPDASVTKVVSRDVRKMVELYHGRDCGSFLKKRLFEHLHIVRKNGLLHESDEPRADLFYLTNRCNMGLEPSIYEVMKKSVIATAWVGRAPLYDYDDFALPRSTVMLNGSYRDIRILDGNGAILFLMWRYPDIVKKDLTYDPAWAMNFAVSLKEPIPDPPVPDISLCRFIGLRVESSVLRVRNPTLHETADELKRMGLDLSGHLYVTLMSGAYVTDLFWWFKMILDWSAQNREQKLRDLKRSAAEVIEWKEQMAERPWHVRNDLIAALREYKRKMGMREGASIDSWLELLRHL
- protein production: not failed

Sequence: RRKVGVLVDGPNMLRKEFNINLKEIREILSEYGDIKIAKVFLNQYATEKLVEAIENQGFEPIVTSGDVDVRMAVEAMELIYNDSIDAVALVTRDADFKAVLMKAMEMGKETIIIGAEPGFSTALKNSADIAIVLNEDEE
- protein production: failed

Sequence: MFLFSLTLGVYCSSWTFYGATGAAVREGVIFLPIYLGPLLFVWFGYDIWRRLGRVRQHHAISSIADFVAARYGKSGVLASLVTILAVIAIIPYLALQLRAIALSTSVIMEQSSHIHTTTNSVLLLTSVLAILAMIFGTRQIANTEQHGGLMLAVAFESFVKLFALLCVALFFIFESPANLSQMTSDVNQTFQEVQLFGVPETFWIQTLLAGLAIICLPRQFHVAVVELRDEKHIRGARKWFAVYLILTILAIIPIASWALHAAPKFLTVPDVAVLSLPLSYNQEWLALLAFLGGFSASTGMLLVSSVALSIMLSNDLIMPALWRFKLLSRHDKHLPKVLKFSRRISIVAVMLLGFLFFHFFNDINQLSVFGLLAFSAVAQFAPALIGGLYWRGGSRQGVYAGLIIGFLMWSYTLLFPTILRSLPEAYQETAQSILLFGPFGINALRPESLFGFESFAPLTHGVIWSLGLNIVLYIWISKIYRPSVAEQIQAESFFYYETKPLPSPHTSTDLTYLPHDAARLKVGDLFALAKRITGEQPTTQAFENFCEQNHLTLNPNSIANGMWWRFTEQYLAGIIGAASARTLLTTAMINNGLALGQVANILDQASQWQRFNQNLLMTMIDHMTQGVSVVDKNMCLVAWNNQYLKLFGYPKDLVYVGCPIADLIRYNAERGECGPGSVEEHVRKRLHWMKVGSAHEFERIRKDGRVIQMRGNPIAGGGFVTTFADITAFRANEAVLEARVKDRTQQLADALTEQQLAREQADMANMSKSRFIAAASHDLLQPMHAARLFSTVLEQSISTEEDRQTLQQLDRALYGAESMLSALLDIARLEGGTIQPKRQPYPLHDLLSDLELQFKSIAAQRNISLKVHDVSFWIDTDPQWIRRIIQNFVSNALRYTAKGRVVVGVLRSAQQSGHIRIGVWDTGPGIAEEQRIKLFQEFERCGHLSPWGEQGLGLGLAIVQRMTGLLNYPVHVYSELGKGSCFMIEVPIVEPPKVATPAVQAVPLKTKAYRILCLDNDETILEGMSSLLGRWGYQVFKATEPEQALEIIQKENIQVWLIDQHLNHNQLGVDFITQNRQEDVPVALITADSHPELPQQLKELNIVLLKKPLKPASLRAWLSGLKIASTTD
- protein production: failed

Sequence: MELLIRTEQLLLQNEKNWELYLSNREEEKPFDFYKDMKPFVDEAKRCADDFLELAIPWVNTERPPYLGELQLRQACDNVQMTAVSAFNGRSFYKHFLDHYQSTKYTLTRVRDFLKRKEESM
- protein production: not failed

Sequence: MEVISSFYLFLEILGTVAFAISGTVVGINHKLDIFGILVMSVITAVGGGIFRDLLLGATPPTALKSPFFIVISIIASIVAMLVALIIKSRREALSIFKAARFYNNLLLVSDAIGLGIFTVLGIDAGIAHGYSQNIFFIVFLGVLTGVGGGMIRDVIANQVPMIFRENIYALPCIIGGILYVYLQSVISHNLALFISVIFIVLIRIISEQRKLNLPRIEY
- protein production: failed

Sequence: MPKIRIRKFWPSGAGTVPGVLLIALALGCVGHRAKFADETFSSDEAEIRSAVEPLPPKAQLVYLVLAGELAGQRGRYEVALEHYLQAARLSRDGRLAERAMQIALFIKKYPEAVESVALWLKAEPRHAGARRMATLLYLKEGRRDEAVTQMKVLLTLPDADLENTLIELVKVLGNEVPRQDATEFMDALLRAFPAMADLHFAAALLAANQGEFQQALSETEEALKLHPDWGRARVLQAQVMAQMGDSATAGDLIQRALKRDPDNARLRLIYSQFLIKSGDIEGARRELERIVAKEPGNQDARFGLGLALIDLGRLDAARREFAALAASEKWRVQAYFYLGLIDARKGRLNEALDWFDRVTTGPTEFDARVNGITVLISLGRLTEARTRLADIRRRFPNESVRLYLLEAELLSKNRDYEDAFNLLTDALGENPGQSDLLYARALVAENLGRFDVLEADLRQVLEKSPDDPNALNALGYTLVERGERLDEAKGYLDRAIRLKPDDPAILDSYGWLLYRLRKYAEAIEYLRRAYDKVQDPEIASHLGEVLMESGRRQEARKILREAWKKAPEHEDMQRIRARYPELLAP
- protein production: failed

Sequence: LLADGQLQDWHDSTVYEIYHHWRHRYPKGVFENREHLFSAEIPRDTPIALQPEEHVSYGWFDMEEAAEKVFSPSNRRAILELGRFLGKR
- protein production: failed
